Target: T1, CD3 epsilon homodimer protein (UniProt P07766 23-126)
T1 construct: also called CD3 (CD3 epsilon)
Test: SPR, CD3 epsilon homodimer on chip, one-arm antibody as analyte;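 also: surface plasmon resonance at 25 °C with CD3 epsilon homodimer amine-coupled to a CM4 sensor chip, antibody injected as analyte, HBS-EP+ as running buffer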

T1 sequence (P07766 23-126): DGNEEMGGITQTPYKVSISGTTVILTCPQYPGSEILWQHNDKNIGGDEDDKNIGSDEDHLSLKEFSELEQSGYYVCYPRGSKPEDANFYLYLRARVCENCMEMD

Binder	KD ratio (KD of CE115HA000/KD of altered form)
CE115HA000 G65D (antibody, human IgG1, kappa, L234A L235A, N297A, name in Kabat numbering, one-arm antibody) heavy: QVQLVESGGGVVQPGRSLRLSCAASGFTFSNAWMHWVRQAPGKGLEWVAQIKAKSNNYATYYAESVKDRFTISRDDSKNSLYLQMNSLKTEDTAVYYCRYVHYGAYYGVDAWGQGTTVTVSSASTKGPSVFPLAPSSKSTSGGTAALGCLVKDYFPEPVTVSWNSGALTSGVHTFPAVLQSSGLYSLSSVVTVPSSSLGTQTYICNVNHKPSNTKVDKKVEPKSCDKTHTCPPCPAPEAAGGPSVFLFPPKPKDTLMISRTPEVTCVVVDVSHEDPEVKFNWYVDGVEVHNAKTKPREEQYASTYRVVSVLTVLHQDWLNGKEYKCKVSNKALPAPIEKTISKAKGQPREPQVYTLPPSRCELTKNQVSLSCAVKGFYPSDIAVEWESNGQPENNYKTTPPVLDSDGSFFLVSKLTVDKSRWQQGNVFSCSVMHEALHNHYTQKSLSLSPDYKDDDDK EPKSSDKTHTCPPCPAPELLGGPSVFLFPPKPKDTLMISRTPEVTCVVVDVSHEDPEVKFNWYVDGVEVHNAKTKPREEQYNSTYRVVSVLTVLHQDWLNGKEYKCKVSNKALPAPIEKTISKAKGQPREPQVCTLPPSRDELTKNQVSLWCLVKGFYPSDIAVEWESNGQPENNYKTTPPVLDSDGSFFLYSKLTVDKSRWQQGNVFSCSVMHEALHNRYTQKSLSLSP light: DIVMTQSPLSLPVTPGEPASISCRSSQSLVHSNRNTYLHWYQQKPGQAPRLLIYKVSNRFSGVPDRFSGSGSGTDFTLKISRVEAEDVGVYYCGQGTQVPYTFGQGTKLEIKRTVAAPSVFIFPPSDEQLKSGTASVVCLLNNFYPREAKVQWKVDNALQSGNSQESVTEQDSKDSTYSLSSTLTLSKADYEKHKVYACEVTHQGLSSPVTKSFNRGEC	0.61
CE115HA000 F29V (antibody, human IgG1, kappa, L234A L235A, N297A, name in Kabat numbering, one-arm antibody) heavy: QVQLVESGGGVVQPGRSLRLSCAASGFTVSNAWMHWVRQAPGKGLEWVAQIKAKSNNYATYYAESVKGRFTISRDDSKNSLYLQMNSLKTEDTAVYYCRYVHYGAYYGVDAWGQGTTVTVSSASTKGPSVFPLAPSSKSTSGGTAALGCLVKDYFPEPVTVSWNSGALTSGVHTFPAVLQSSGLYSLSSVVTVPSSSLGTQTYICNVNHKPSNTKVDKKVEPKSCDKTHTCPPCPAPEAAGGPSVFLFPPKPKDTLMISRTPEVTCVVVDVSHEDPEVKFNWYVDGVEVHNAKTKPREEQYASTYRVVSVLTVLHQDWLNGKEYKCKVSNKALPAPIEKTISKAKGQPREPQVYTLPPSRCELTKNQVSLSCAVKGFYPSDIAVEWESNGQPENNYKTTPPVLDSDGSFFLVSKLTVDKSRWQQGNVFSCSVMHEALHNHYTQKSLSLSPDYKDDDDK EPKSSDKTHTCPPCPAPELLGGPSVFLFPPKPKDTLMISRTPEVTCVVVDVSHEDPEVKFNWYVDGVEVHNAKTKPREEQYNSTYRVVSVLTVLHQDWLNGKEYKCKVSNKALPAPIEKTISKAKGQPREPQVCTLPPSRDELTKNQVSLWCLVKGFYPSDIAVEWESNGQPENNYKTTPPVLDSDGSFFLYSKLTVDKSRWQQGNVFSCSVMHEALHNRYTQKSLSLSP light: DIVMTQSPLSLPVTPGEPASISCRSSQSLVHSNRNTYLHWYQQKPGQAPRLLIYKVSNRFSGVPDRFSGSGSGTDFTLKISRVEAEDVGVYYCGQGTQVPYTFGQGTKLEIKRTVAAPSVFIFPPSDEQLKSGTASVVCLLNNFYPREAKVQWKVDNALQSGNSQESVTEQDSKDSTYSLSSTLTLSKADYEKHKVYACEVTHQGLSSPVTKSFNRGEC	2.94
CE115HA000 E61Q (antibody, human IgG1, kappa, L234A L235A, N297A, name in Kabat numbering, one-arm antibody) heavy: QVQLVESGGGVVQPGRSLRLSCAASGFTFSNAWMHWVRQAPGKGLEWVAQIKAKSNNYATYYAQSVKGRFTISRDDSKNSLYLQMNSLKTEDTAVYYCRYVHYGAYYGVDAWGQGTTVTVSSASTKGPSVFPLAPSSKSTSGGTAALGCLVKDYFPEPVTVSWNSGALTSGVHTFPAVLQSSGLYSLSSVVTVPSSSLGTQTYICNVNHKPSNTKVDKKVEPKSCDKTHTCPPCPAPEAAGGPSVFLFPPKPKDTLMISRTPEVTCVVVDVSHEDPEVKFNWYVDGVEVHNAKTKPREEQYASTYRVVSVLTVLHQDWLNGKEYKCKVSNKALPAPIEKTISKAKGQPREPQVYTLPPSRCELTKNQVSLSCAVKGFYPSDIAVEWESNGQPENNYKTTPPVLDSDGSFFLVSKLTVDKSRWQQGNVFSCSVMHEALHNHYTQKSLSLSPDYKDDDDK EPKSSDKTHTCPPCPAPELLGGPSVFLFPPKPKDTLMISRTPEVTCVVVDVSHEDPEVKFNWYVDGVEVHNAKTKPREEQYNSTYRVVSVLTVLHQDWLNGKEYKCKVSNKALPAPIEKTISKAKGQPREPQVCTLPPSRDELTKNQVSLWCLVKGFYPSDIAVEWESNGQPENNYKTTPPVLDSDGSFFLYSKLTVDKSRWQQGNVFSCSVMHEALHNRYTQKSLSLSP light: DIVMTQSPLSLPVTPGEPASISCRSSQSLVHSNRNTYLHWYQQKPGQAPRLLIYKVSNRFSGVPDRFSGSGSGTDFTLKISRVEAEDVGVYYCGQGTQVPYTFGQGTKLEIKRTVAAPSVFIFPPSDEQLKSGTASVVCLLNNFYPREAKVQWKVDNALQSGNSQESVTEQDSKDSTYSLSSTLTLSKADYEKHKVYACEVTHQGLSSPVTKSFNRGEC	0.65

Further lines, results first:

KD ratio (KD of CE115HA000/KD of altered form)	Binder
0.94	CE115HA000 E61A (antibody, human IgG1, kappa, L234A L235A, N297A, name in Kabat numbering, one-arm antibody) heavy: QVQLVESGGGVVQPGRSLRLSCAASGFTFSNAWMHWVRQAPGKGLEWVAQIKAKSNNYATYYAASVKGRFTISRDDSKNSLYLQMNSLKTEDTAVYYCRYVHYGAYYGVDAWGQGTTVTVSSASTKGPSVFPLAPSSKSTSGGTAALGCLVKDYFPEPVTVSWNSGALTSGVHTFPAVLQSSGLYSLSSVVTVPSSSLGTQTYICNVNHKPSNTKVDKKVEPKSCDKTHTCPPCPAPEAAGGPSVFLFPPKPKDTLMISRTPEVTCVVVDVSHEDPEVKFNWYVDGVEVHNAKTKPREEQYASTYRVVSVLTVLHQDWLNGKEYKCKVSNKALPAPIEKTISKAKGQPREPQVYTLPPSRCELTKNQVSLSCAVKGFYPSDIAVEWESNGQPENNYKTTPPVLDSDGSFFLVSKLTVDKSRWQQGNVFSCSVMHEALHNHYTQKSLSLSPDYKDDDDK EPKSSDKTHTCPPCPAPELLGGPSVFLFPPKPKDTLMISRTPEVTCVVVDVSHEDPEVKFNWYVDGVEVHNAKTKPREEQYNSTYRVVSVLTVLHQDWLNGKEYKCKVSNKALPAPIEKTISKAKGQPREPQVCTLPPSRDELTKNQVSLWCLVKGFYPSDIAVEWESNGQPENNYKTTPPVLDSDGSFFLYSKLTVDKSRWQQGNVFSCSVMHEALHNRYTQKSLSLSP light: DIVMTQSPLSLPVTPGEPASISCRSSQSLVHSNRNTYLHWYQQKPGQAPRLLIYKVSNRFSGVPDRFSGSGSGTDFTLKISRVEAEDVGVYYCGQGTQVPYTFGQGTKLEIKRTVAAPSVFIFPPSDEQLKSGTASVVCLLNNFYPREAKVQWKVDNALQSGNSQESVTEQDSKDSTYSLSSTLTLSKADYEKHKVYACEVTHQGLSSPVTKSFNRGEC
0.9	CE115HA000 E61D (antibody, human IgG1, kappa, L234A L235A, N297A, name in Kabat numbering, one-arm antibody) heavy: QVQLVESGGGVVQPGRSLRLSCAASGFTFSNAWMHWVRQAPGKGLEWVAQIKAKSNNYATYYADSVKGRFTISRDDSKNSLYLQMNSLKTEDTAVYYCRYVHYGAYYGVDAWGQGTTVTVSSASTKGPSVFPLAPSSKSTSGGTAALGCLVKDYFPEPVTVSWNSGALTSGVHTFPAVLQSSGLYSLSSVVTVPSSSLGTQTYICNVNHKPSNTKVDKKVEPKSCDKTHTCPPCPAPEAAGGPSVFLFPPKPKDTLMISRTPEVTCVVVDVSHEDPEVKFNWYVDGVEVHNAKTKPREEQYASTYRVVSVLTVLHQDWLNGKEYKCKVSNKALPAPIEKTISKAKGQPREPQVYTLPPSRCELTKNQVSLSCAVKGFYPSDIAVEWESNGQPENNYKTTPPVLDSDGSFFLVSKLTVDKSRWQQGNVFSCSVMHEALHNHYTQKSLSLSPDYKDDDDK EPKSSDKTHTCPPCPAPELLGGPSVFLFPPKPKDTLMISRTPEVTCVVVDVSHEDPEVKFNWYVDGVEVHNAKTKPREEQYNSTYRVVSVLTVLHQDWLNGKEYKCKVSNKALPAPIEKTISKAKGQPREPQVCTLPPSRDELTKNQVSLWCLVKGFYPSDIAVEWESNGQPENNYKTTPPVLDSDGSFFLYSKLTVDKSRWQQGNVFSCSVMHEALHNRYTQKSLSLSP light: DIVMTQSPLSLPVTPGEPASISCRSSQSLVHSNRNTYLHWYQQKPGQAPRLLIYKVSNRFSGVPDRFSGSGSGTDFTLKISRVEAEDVGVYYCGQGTQVPYTFGQGTKLEIKRTVAAPSVFIFPPSDEQLKSGTASVVCLLNNFYPREAKVQWKVDNALQSGNSQESVTEQDSKDSTYSLSSTLTLSKADYEKHKVYACEVTHQGLSSPVTKSFNRGEC
0.82	CE115HA000 E61P (antibody, human IgG1, kappa, L234A L235A, N297A, name in Kabat numbering, one-arm antibody) heavy: QVQLVESGGGVVQPGRSLRLSCAASGFTFSNAWMHWVRQAPGKGLEWVAQIKAKSNNYATYYAPSVKGRFTISRDDSKNSLYLQMNSLKTEDTAVYYCRYVHYGAYYGVDAWGQGTTVTVSSASTKGPSVFPLAPSSKSTSGGTAALGCLVKDYFPEPVTVSWNSGALTSGVHTFPAVLQSSGLYSLSSVVTVPSSSLGTQTYICNVNHKPSNTKVDKKVEPKSCDKTHTCPPCPAPEAAGGPSVFLFPPKPKDTLMISRTPEVTCVVVDVSHEDPEVKFNWYVDGVEVHNAKTKPREEQYASTYRVVSVLTVLHQDWLNGKEYKCKVSNKALPAPIEKTISKAKGQPREPQVYTLPPSRCELTKNQVSLSCAVKGFYPSDIAVEWESNGQPENNYKTTPPVLDSDGSFFLVSKLTVDKSRWQQGNVFSCSVMHEALHNHYTQKSLSLSPDYKDDDDK EPKSSDKTHTCPPCPAPELLGGPSVFLFPPKPKDTLMISRTPEVTCVVVDVSHEDPEVKFNWYVDGVEVHNAKTKPREEQYNSTYRVVSVLTVLHQDWLNGKEYKCKVSNKALPAPIEKTISKAKGQPREPQVCTLPPSRDELTKNQVSLWCLVKGFYPSDIAVEWESNGQPENNYKTTPPVLDSDGSFFLYSKLTVDKSRWQQGNVFSCSVMHEALHNRYTQKSLSLSP light: DIVMTQSPLSLPVTPGEPASISCRSSQSLVHSNRNTYLHWYQQKPGQAPRLLIYKVSNRFSGVPDRFSGSGSGTDFTLKISRVEAEDVGVYYCGQGTQVPYTFGQGTKLEIKRTVAAPSVFIFPPSDEQLKSGTASVVCLLNNFYPREAKVQWKVDNALQSGNSQESVTEQDSKDSTYSLSSTLTLSKADYEKHKVYACEVTHQGLSSPVTKSFNRGEC

Reference: patent US20210388087A1 (Chugai, published 2021)
